What follows are binders tested against T1, HLA-A2 molecules on T2A2 cells (human) (assay: flow cytometry, upregulation of HLA-A2 on T2A2 cells, peptide 12.5 µg/mL).
T1 construct: whole, on cells; also called class I molecules
Method: *Peptides were used at a concentration of 12.5 μg/mL. ^{#}Results expressed as mean fluorescence intensity (MFI). NGEP (P703) peptide is an HLA-A2-binding peptide. CAP-7 peptide is an HLA-A3-binding CEA peptide

Row | Binder | T2 Binding (MFI)
1 | SLSYTNPAV (Synthetic 9-mer) [P1240] | 326 MFI
2 | YLSYTNPAV [P1240(1Y)] | 342 MFI
3 | ALAIVYLIAL (Synthetic 10-mer, purity >90%; also called Native 432) [P1172] | 249 MFI
4 | YLAIVYLIAL [P1172(1Y)] | 245 MFI
5 | YLIALAVCQC (Synthetic 10-mer) [P1177] | 211 MFI
6 | YLIALAVCQV [P1177(10V)] | 299 MFI

What follows are binders tested against T1, HLA-A2 molecules on T2A2 cells (assay: flow cytometry, upregulation of HLA-A2 on T2A2 cells, peptide 25 µg/mL).
Method: *Peptides were used at a concentration of 25 μg/mL. ^{#}Results expressed as mean fluorescence intensity (MFI).

Row | Binder | T2A2 Binding (MFI)
7 | STAPPAHNV (Synthetic 9-mer; also called pVNTR1) [VNTR-1] | 169 MFI
8 | STAPPAHGV (Synthetic 9-mer; also called pVNTR2; VNTR-2 (native)) [VNTR-2] | 166 MFI
9 | APDTRPAPG (Synthetic 9-mer; also called pVNTR4; VNTR-4 (native)) [VNTR-4] | 210 MFI
10 | YLAPPAHGV (also called pVNTR3; pVNTR-3) [VNTR-3 (agonist)] | 486 MFI
11 | YLDTRPAPV (Synthetic analog with substitutions at positions 1, 2 and 9; also called pVNTR5; pVNTR-5) [VNTR-5 (agonist)] | 647 MFI

From patent publication US20140363495A1 (US Dept. of Health and Human Services, published 2014)
